Experimental data published in PMC2764309 (Science (New York, N.Y.), 2009).

T1: HipA mutant D309Q (Escherichia coli, UniProt P23874 1-440, D309Q)
T1 sequence: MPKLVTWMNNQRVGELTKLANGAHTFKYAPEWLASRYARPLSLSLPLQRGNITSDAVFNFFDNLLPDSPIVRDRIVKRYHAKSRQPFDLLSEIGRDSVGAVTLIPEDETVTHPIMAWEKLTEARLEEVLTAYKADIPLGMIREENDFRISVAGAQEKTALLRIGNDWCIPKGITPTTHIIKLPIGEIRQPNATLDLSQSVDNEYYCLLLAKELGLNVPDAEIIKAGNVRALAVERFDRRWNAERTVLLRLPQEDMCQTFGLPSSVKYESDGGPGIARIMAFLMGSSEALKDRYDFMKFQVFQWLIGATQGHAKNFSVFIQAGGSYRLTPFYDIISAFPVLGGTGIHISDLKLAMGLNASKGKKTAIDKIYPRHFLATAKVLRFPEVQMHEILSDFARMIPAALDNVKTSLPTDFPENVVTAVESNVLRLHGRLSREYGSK

B1: HipB (natural protein)
chain: MMSFQKIYSPTQLANAMKLVRQQNGWTQSELAKKIGIKQATISNFENNPDNTTLTTFFKILQSLELSMTLCDAKNASPESTEQQNLEW

Legend:
[1] = molecular target: the molecule itself; assay: crystal structure
[2] = molecular target: T1, HipA mutant D309Q; assay: crystal structure
[3] = molecular target: T1, HipA mutant D309Q; assay: fluorescence polarisation

Binder | stoichiometry N [1] | binding result [2] | Kd [3]
B1 | 2 | binds | –
IREGGRTVGA [EF-Tu peptide IREGGRTVGA] | – | – | 15 ± 5 µM
